The values below come from US20090280473A1.

Experiment in all cases: cell-based or functional assay
Experiment [1] concerns the target Semliki Forest virus E1 fusion protein, low pH-induced trimeric form (full-length viral E1 of cell-b (Semliki Forest virus) (UniProt P03315)).
In experiment [2] the target is Dengue virus 1 (DV1, strain Western Pacific) E fusion protein (Dengue virus 1) (UniProt P17763).
Experiment [3] deals with Dengue virus 2 (DV2, strain New Guinea C) E fusion protein (Dengue virus 2) (UniProt P14340).

In experiment [1], “DIII (SFV E1 domain III, Met + residues 291-383) (from UniProt P03315 1106-1198)” yielded a percent inhibition of SFV fusion in the FIA at ˜80 µM of 60 % inhibition.
Take “DIIIS (SFV E1 domain III plus stem, Met + residues 291-412) (from UniProt P03315 1106-1227)”: in experiment [1], the inhibition of SFV fusion with BHK cells, fusion-infection assay (FIA) turned out to be 6 µM.
In turn, “DV2DIIIH1 (dengue virus 2 E domain III plus helix 1 of the stem, residues 296-415) (from UniProt P14340 576-695)” returned a percent inhibition of DV1 fusion in the FIA at 50 µM in experiment [2] of 70 % inhibition. The substance further came in with a percent inhibition of DV2 fusion in the FIA at 50 µM in experiment [3] of 70 % inhibition.
